“And” between values parts separate entries of the source, which are not always exact repeats. Identical values can stand only once.
Assays:
[1] = target: biotinylated mouse anti dengue IgG (clone 13C11); assay: Dengue IgM indirect ELISA: Prep A 1/10 premixed with 13C11-Biotin 1/10,000, dengue 2 antigen plate, HRP sheep anti Human IgM
[2] = target: biotinylated mouse anti dengue IgG (clone 13C11); assay: Dengue IgM indirect ELISA: Prep A 1/100 premixed with 13C11-Biotin 1/10,000, dengue 2 antigen plate, HRP sheep anti Human IgM
[3] = target: biotinylated mouse anti dengue IgG (clone 13C11); assay: Dengue IgM indirect ELISA: Prep A 1/1000 premixed with 13C11-Biotin 1/10,000, dengue 2 antigen plate, HRP sheep anti Human IgM
[4] = target: biotinylated mouse anti dengue IgG (clone 13C11); assay: Dengue IgM capture ELISA: Prep A […] premixed with 13C11-Biotin 1.6 µg/ml, sheep anti human IgM strips, dengue antigen with anti dengue-HRP tracer
[5] = target: biotinylated mouse anti dengue IgG (clone 13C11); assay: Dengue IgM capture ELISA: Prep B 1.0 µg/ml premixed with 13C11-Biotin 1.6 µg/ml, sheep anti human IgM strips, dengue antigen with anti dengue-HRP tracer

Chain of Streptavidin-CH3µ Preparation A (chain): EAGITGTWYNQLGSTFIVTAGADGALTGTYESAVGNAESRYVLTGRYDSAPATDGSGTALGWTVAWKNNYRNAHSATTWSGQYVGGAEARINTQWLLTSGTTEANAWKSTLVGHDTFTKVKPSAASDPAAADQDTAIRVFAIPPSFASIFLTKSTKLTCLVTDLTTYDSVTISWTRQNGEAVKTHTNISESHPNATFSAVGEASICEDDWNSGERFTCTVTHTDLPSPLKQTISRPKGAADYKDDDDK
Chain of Streptavidin-CH3µ Preparation B (chain): as above

Substance	A450 [1]	A450 [2]	A450 [3]	A450 [4]	A450 [5]
Streptavidin-CH3µ Preparation A	1.19 absorbance and 1.11 absorbance	1.07 absorbance and 1.08 absorbance	0.212 absorbance and 0.183 absorbance	1.91 absorbance and 1.85 absorbance	
Streptavidin-CH3µ Preparation B					1.2 absorbance and 1.34 absorbance
